Measurements published in the supplement of paper PMC9112550, “Optimization of the antimicrobial peptide Bac7 by deep mutational scanning” (BMC Biology, 2022).

Test system: Escherichia coli TOP10
Test: shrunken log2 fold change of peptide-encoding DNA abundance (4.5 h post-induction vs induction); higher = less antimicrobial activity (less host growth inhibition)
Settings: time post-induction: 4.5 h; library: site-saturation at positions 5, 18, 19, 20
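Also: peptides expressed intracellularly from a pBAD plasmid library in pooled LB shake-flask culture, induced with 0.3% L-arabinose, DNA abundance read by NGS, three biological replicates, DESeq2 with apeglm shrinkage.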

Row | Sequence | shrunken log2 fold change
1 | RRIRERPPRLPRPRPRPFGFPRP | -0.335
2 | RRIRERPPRLPRPRPRPFHCPRP | -0.175
3 | RRIRERPPRLPRPRPRPFHGPRP | -0.0459
4 | RRIRERPPRLPRPRPRPFKHPRP | -0.255
5 | RRIRERPPRLPRPRPRPFKQPRP | -0.0138
6 | RRIRERPPRLPRPRPRPFKWPRP | -0.0223
7 | RRIRERPPRLPRPRPRPFLAPRP | 0.0854
8 | RRIRERPPRLPRPRPRPFLRPRP | -0.401
9 | RRIRERPPRLPRPRPRPFMIPRP | -0.768
10 | RRIRERPPRLPRPRPRPFMYPRP | -0.551
11 | RRIRERPPRLPRPRPRPFQNPRP | 0.02
12 | RRIRERPPRLPRPRPRPFQPPRP | -0.311
13 | RRIRERPPRLPRPRPRPFQYPRP | -0.64
14 | RRIRERPPRLPRPRPRPFRQPRP | 0.198
15 | RRIRERPPRLPRPRPRPFSKPRP | -0.0819
16 | RRIRERPPRLPRPRPRPFTYPRP | -0.0534
17 | RRIRERPPRLPRPRPRPFVPPRP | -0.507
18 | RRIRERPPRLPRPRPRPFVVPRP | -0.0043
19 | RRIRERPPRLPRPRPRPFWAPRP | 0.084
20 | RRIRERPPRLPRPRPRPGAEPRP | 0.372
21 | RRIRERPPRLPRPRPRPGAHPRP | 0.0368
22 | RRIRERPPRLPRPRPRPGDAPRP | 0.106
23 | RRIRERPPRLPRPRPRPGDKPRP | -0.315
24 | RRIRERPPRLPRPRPRPGDRPRP | 0.172
25 | RRIRERPPRLPRPRPRPGEEPRP | 0.175

Row | Sequence | shrunken log2 fold change
26 | RRIRERPPRLPRPRPRPGFDPRP | 0.0961
27 | RRIRERPPRLPRPRPRPGFIPRP | -0.256
28 | RRIRERPPRLPRPRPRPGFVPRP | 0.755
29 | RRIRERPPRLPRPRPRPGKMPRP | 0.0204
30 | RRIRERPPRLPRPRPRPGLDPRP | -0.0204
31 | RRIRERPPRLPRPRPRPGLFPRP | -0.0491
32 | RRIRERPPRLPRPRPRPGMEPRP | 0.00479
33 | RRIRERPPRLPRPRPRPGMQPRP | -0.328
34 | RRIRERPPRLPRPRPRPGPYPRP | -0.208
35 | RRIRERPPRLPRPRPRPGQPPRP | 0.0236
36 | RRIRERPPRLPRPRPRPGRHPRP | -0.0636
37 | RRIRERPPRLPRPRPRPGSMPRP | -0.343
38 | RRIRERPPRLPRPRPRPGVIPRP | -0.0985
39 | RRIRERPPRLPRPRPRPGWDPRP | 0.0203
40 | RRIRERPPRLPRPRPRPGWMPRP | 0.144
41 | RRIRERPPRLPRPRPRPHAQPRP | -0.0243
42 | RRIRERPPRLPRPRPRPHDLPRP | -0.343
43 | RRIRERPPRLPRPRPRPHDQPRP | 0.0804
44 | RRIRERPPRLPRPRPRPHECPRP | -0.0253
45 | RRIRERPPRLPRPRPRPHEQPRP | -0.0112
46 | RRIRERPPRLPRPRPRPHFYPRP | -0.0121
47 | RRIRERPPRLPRPRPRPHGAPRP | 0.0169
48 | RRIRERPPRLPRPRPRPHHQPRP | -0.318
49 | RRIRERPPRLPRPRPRPHIGPRP | 0.00581
50 | RRIRERPPRLPRPRPRPHIIPRP | -0.412

Row | Sequence | shrunken log2 fold change
51 | RRIRERPPRLPRPRPRPHKGPRP | -0.194
52 | RRIRERPPRLPRPRPRPHKSPRP | -0.0459
53 | RRIRERPPRLPRPRPRPHMCPRP | -0.0653
54 | RRIRERPPRLPRPRPRPHRCPRP | -0.0136
55 | RRIRERPPRLPRPRPRPHRNPRP | -0.869
56 | RRIRERPPRLPRPRPRPHTIPRP | -0.217
57 | RRIRERPPRLPRPRPRPHVWPRP | 0.191
58 | RRIRERPPRLPRPRPRPHWPPRP | 0.132
59 | RRIRERPPRLPRPRPRPHYLPRP | -0.139
60 | RRIRERPPRLPRPRPRPHYNPRP | -1.12
61 | RRIRERPPRLPRPRPRPHYWPRP | -0.353
62 | RRIRERPPRLPRPRPRPICMPRP | -0.309
63 | RRIRERPPRLPRPRPRPICPPRP | -0.794
64 | RRIRERPPRLPRPRPRPIEKPRP | 0.00242
65 | RRIRERPPRLPRPRPRPIFLPRP | -0.288
66 | RRIRERPPRLPRPRPRPIGHPRP | -0.244
67 | RRIRERPPRLPRPRPRPIGIPRP | -0.123
68 | RRIRERPPRLPRPRPRPIGLPRP | -0.293
69 | RRIRERPPRLPRPRPRPIKTPRP | -0.139
70 | RRIRERPPRLPRPRPRPILIPRP | -0.0809
71 | RRIRERPPRLPRPRPRPIMIPRP | -0.246
72 | RRIRERPPRLPRPRPRPINLPRP | -0.338
73 | RRIRERPPRLPRPRPRPIQCPRP | 0.0885
74 | RRIRERPPRLPRPRPRPIQYPRP | -0.163
75 | RRIRERPPRLPRPRPRPISQPRP | -0.058

Row | Sequence | shrunken log2 fold change
76 | RRIRERPPRLPRPRPRPITIPRP | -0.0388
77 | RRIRERPPRLPRPRPRPIVTPRP | -0.158
78 | RRIRERPPRLPRPRPRPIYGPRP | 0.0231
79 | RRIRERPPRLPRPRPRPKACPRP | 0.0288
80 | RRIRERPPRLPRPRPRPKDNPRP | -0.342
81 | RRIRERPPRLPRPRPRPKEFPRP | -0.11
82 | RRIRERPPRLPRPRPRPKFMPRP | -0.293
83 | RRIRERPPRLPRPRPRPKFNPRP | -0.558
84 | RRIRERPPRLPRPRPRPKGPPRP | 0.0237
85 | RRIRERPPRLPRPRPRPKIIPRP | 0.357
86 | RRIRERPPRLPRPRPRPKITPRP | -0.514
87 | RRIRERPPRLPRPRPRPKKEPRP | -0.0367
88 | RRIRERPPRLPRPRPRPKKIPRP | -0.515
89 | RRIRERPPRLPRPRPRPKKPPRP | 0.507
90 | RRIRERPPRLPRPRPRPKLEPRP | -0.0117
91 | RRIRERPPRLPRPRPRPKLFPRP | -0.0593
92 | RRIRERPPRLPRPRPRPKLGPRP | 0.12
93 | RRIRERPPRLPRPRPRPKLHPRP | -0.0464
94 | RRIRERPPRLPRPRPRPKLLPRP | 0.0473
95 | RRIRERPPRLPRPRPRPKLTPRP | 0.21
96 | RRIRERPPRLPRPRPRPKMVPRP | -0.22
97 | RRIRERPPRLPRPRPRPKMWPRP | -0.0633
98 | RRIRERPPRLPRPRPRPKNFPRP | -0.311
99 | RRIRERPPRLPRPRPRPKNNPRP | -0.464
100 | RRIRERPPRLPRPRPRPKRDPRP | 0.024

Row | Sequence | shrunken log2 fold change
101 | RRIRERPPRLPRPRPRPKRFPRP | -0.0239
102 | RRIRERPPRLPRPRPRPKSNPRP | -0.472
103 | RRIRERPPRLPRPRPRPKSVPRP | -0.00947
104 | RRIRERPPRLPRPRPRPKTPPRP | 0.0131
105 | RRIRERPPRLPRPRPRPKVYPRP | -0.126
106 | RRIRERPPRLPRPRPRPKYEPRP | -0.303
107 | RRIRERPPRLPRPRPRPKYLPRP | -0.77
108 | RRIRERPPRLPRPRPRPKYWPRP | -0.202
109 | RRIRERPPRLPRPRPRPLADPRP | -0.14
110 | RRIRERPPRLPRPRPRPLGFPRP | -0.118
111 | RRIRERPPRLPRPRPRPLIKPRP | -0.12
112 | RRIRERPPRLPRPRPRPLIVPRP | -0.632
113 | RRIRERPPRLPRPRPRPLKRPRP | -0.28
114 | RRIRERPPRLPRPRPRPLLMPRP | 0.0107
115 | RRIRERPPRLPRPRPRPLMPPRP | -0.119
116 | RRIRERPPRLPRPRPRPLPAPRP | 0.065
117 | RRIRERPPRLPRPRPRPLPDPRP | -0.0462
118 | RRIRERPPRLPRPRPRPLPTPRP | -0.0242
119 | RRIRERPPRLPRPRPRPLRPPRP | 0.889
120 | RRIRERPPRLPRPRPRPLSCPRP | 0.075
121 | RRIRERPPRLPRPRPRPLSRPRP | 0.00391
122 | RRIRERPPRLPRPRPRPLTNPRP | -0.242
123 | RRIRERPPRLPRPRPRPLVNPRP | -0.456
124 | RRIRERPPRLPRPRPRPLYRPRP | -0.474
125 | RRIRERPPRLPRPRPRPLYYPRP | -0.694

Row | Sequence | shrunken log2 fold change
126 | RRIRERPPRLPRPRPRPMAHPRP | -0.0343
127 | RRIRERPPRLPRPRPRPMAQPRP | 0.00812
128 | RRIRERPPRLPRPRPRPMCAPRP | 0.000297
129 | RRIRERPPRLPRPRPRPMCTPRP | 0.107
130 | RRIRERPPRLPRPRPRPMDKPRP | -0.219
131 | RRIRERPPRLPRPRPRPMDQPRP | -0.00192
132 | RRIRERPPRLPRPRPRPMEIPRP | -0.221
133 | RRIRERPPRLPRPRPRPMHYPRP | -0.0285
134 | RRIRERPPRLPRPRPRPMIRPRP | 0.0011
135 | RRIRERPPRLPRPRPRPMKQPRP | -0.0573
136 | RRIRERPPRLPRPRPRPMLKPRP | -0.292
137 | RRIRERPPRLPRPRPRPMPDPRP | 0.17
138 | RRIRERPPRLPRPRPRPMPQPRP | -0.201
139 | RRIRERPPRLPRPRPRPMQPPRP | -0.0115
140 | RRIRERPPRLPRPRPRPMRFPRP | -0.0231
141 | RRIRERPPRLPRPRPRPMRHPRP | 0.0434
142 | RRIRERPPRLPRPRPRPMSIPRP | -0.239
143 | RRIRERPPRLPRPRPRPMTVPRP | -0.124
144 | RRIRERPPRLPRPRPRPMVMPRP | -0.368
145 | RRIRERPPRLPRPRPRPMWTPRP | -0.306
146 | RRIRERPPRLPRPRPRPMYMPRP | -0.0017
147 | RRIRERPPRLPRPRPRPNAHPRP | 0.0249
148 | RRIRERPPRLPRPRPRPNAYPRP | -0.0628
149 | RRIRERPPRLPRPRPRPNCQPRP | -0.0295
150 | RRIRERPPRLPRPRPRPNCTPRP | -0.102
